B1: Pistol ribozyme (parent)
chain: GGGUCGUUGUUCCAUAAUCGCGUGGAUAUGGCACGCAAGUUUCUACCGGGCACCGUAAAUGUCCGACUGGAGCCGUUCGGGCGGCUAUAAACAGACCUCAGGCCCGAAGCGUGGCGGCACCUGCCGCCGGUGGUAAAAAAGAUCGGAAGAGCACACGUCU

Variants of: B1
Assay: aptazyme ON/OFF ratio, guanine; higher = stronger switching; co-transcriptional cleavage with and without guanine
In the case of U7C G9A U10G U11A C12G C13G, the “aptazyme ON/OFF ratio” value is reported as 1.31. In the case of U7C G9C U10A C12U, the “aptazyme ON/OFF ratio” value is reported as 1.06. With U7C G9C U10A C12A the “aptazyme ON/OFF ratio” value was 1.04. With U7C G9C U10A C12G the “aptazyme ON/OFF ratio” value was 1.09. For U7C G9C U10A U11C C12G C13A, the “aptazyme ON/OFF ratio” value was 1.07. For U7C G9C U10A U11C C12G C13U, the “aptazyme ON/OFF ratio” value was 1.17. For U7C G9C U10A U11C C12G C13G, the “aptazyme ON/OFF ratio” value was 1.27. With U7C G9C U10A C12U C13U the “aptazyme ON/OFF ratio” value was 1.04. In the case of U7C G9C U10A C12U C13A, the “aptazyme ON/OFF ratio” value is reported as 1.08. With U7C G9C U10A C12U C13G the “aptazyme ON/OFF ratio” value was 1.07. In the case of U7C G9A U10G C13A, the “aptazyme ON/OFF ratio” value is reported as 1.19. In the case of U7C G9A U10G C13G, the “aptazyme ON/OFF ratio” value is reported as 1.02. In the case of U7C G9A U10G C13U, the “aptazyme ON/OFF ratio” value is reported as 1.34. In the case of U7C G9C U10C U11A C12U C13U, the “aptazyme ON/OFF ratio” value is reported as 1.03. For U7C G9C U10C U11A C12U C13G, the “aptazyme ON/OFF ratio” value was 1.07. With U7C G9C U10C U11A C12U C13A the “aptazyme ON/OFF ratio” value was 1.03. With U7C G9C U10A U11A C12G C13A the “aptazyme ON/OFF ratio” value was 1.08. For U7C G9C U10A U11A C12G C13G, the “aptazyme ON/OFF ratio” value was 1.12. In the case of U7C G9C U10A U11A C12G C13U, the “aptazyme ON/OFF ratio” value is reported as 1.07. For U7C G9A U10G C12U C13G, the “aptazyme ON/OFF ratio” value was 1.17. For U7C G9A U10G C12U C13A, the “aptazyme ON/OFF ratio” value was 1.2. With U7C G9A U10G C12U C13U the “aptazyme ON/OFF ratio” value was 1.11. For U7C G9A U10C U11G C12A C13A, the “aptazyme ON/OFF ratio” value was 1.21. With U7C G9A U10C U11G C12A C13U the “aptazyme ON/OFF ratio” value was 1.08. For U7C G9A U10C U11G C12A C13G, the “aptazyme ON/OFF ratio” value was 1.15. With U7C G9C U10G C12U C13A the “aptazyme ON/OFF ratio” value was 1.11. With U7C G9C U10G C12U C13G the “aptazyme ON/OFF ratio” value was 1.03. With U7C G9C U10G C12U C13U the “aptazyme ON/OFF ratio” value was 1.17. In the case of U7C G9C U10A U11G C12U C13G, the “aptazyme ON/OFF ratio” value is reported as 1.08. For U7C G9C U10A U11G C12U C13A, the “aptazyme ON/OFF ratio” value was 1.12. With U7C G9C U10A U11G C12U C13U the “aptazyme ON/OFF ratio” value was 1.13. With U7C G9C U10G U11A C12U C13A the “aptazyme ON/OFF ratio” value was 1.19. In the case of U7C G9C U10G U11A C12U C13U, the “aptazyme ON/OFF ratio” value is reported as 1.15. With U7C G9C U10G U11A C12U C13G the “aptazyme ON/OFF ratio” value was 1.05. In the case of U7C G9C U10A U11G C12A C13A, the “aptazyme ON/OFF ratio” value is reported as 1.15. In the case of U7C G9C U10A U11G C12A C13U, the “aptazyme ON/OFF ratio” value is reported as 1.06. With U7C G9C U10A U11G C12A C13G the “aptazyme ON/OFF ratio” value was 1.03. With U7C G9C U10C U11A C12A C13U the “aptazyme ON/OFF ratio” value was 1.05. With U7C G9C U10C U11A C12A C13A the “aptazyme ON/OFF ratio” value was 1.08. With U7C G9C U10C U11A C12A C13G the “aptazyme ON/OFF ratio” value was 1.05. With U7C G9C U10C C12G the “aptazyme ON/OFF ratio” value was 1.07. In the case of U7C G9C U10C C12U, the “aptazyme ON/OFF ratio” value is reported as 1.09. With U7C G9C U10C C12A the “aptazyme ON/OFF ratio” value was 1.04. In the case of U7C G9C U10C U11A C12A, the “aptazyme ON/OFF ratio” value is reported as 1.09. For U7C G9C U10C U11A C12U, the “aptazyme ON/OFF ratio” value was 1. For U7C G9C U10C U11A C12G, the “aptazyme ON/OFF ratio” value was 0.941. For U7C G9A U10G U11C C12A C13U, the “aptazyme ON/OFF ratio” value was 1.15. With U7C G9A U10G U11C C12A C13A the “aptazyme ON/OFF ratio” value was 1.2. For U7C G9A U10G U11C C12A C13G, the “aptazyme ON/OFF ratio” value was 1.11. With U7C G9A U10G U11A C12A C13U the “aptazyme ON/OFF ratio” value was 1.16. In the case of U7C G9A U10G U11A C12A C13A, the “aptazyme ON/OFF ratio” value is reported as 1.17. In the case of U7C G9A U10G U11A C12A C13G, the “aptazyme ON/OFF ratio” value is reported as 1.09. In the case of U7C G9C U10A U11G C12G C13G, the “aptazyme ON/OFF ratio” value is reported as 1.09. For U7C G9C U10A U11G C12G C13A, the “aptazyme ON/OFF ratio” value was 1.1. For U7C G9C U10A U11G C12G C13U, the “aptazyme ON/OFF ratio” value was 1.13. In the case of U7C G9C U10A C12A C13A, the “aptazyme ON/OFF ratio” value is reported as 1.09. In the case of U7C G9C U10A C12A C13U, the “aptazyme ON/OFF ratio” value is reported as 1.09. With U7C G9C U10A C12A C13G the “aptazyme ON/OFF ratio” value was 1.09. With U7C G9C U10G U11G C12A C13U the “aptazyme ON/OFF ratio” value was 1.09. In the case of U7C G9C U10G U11G C12A C13G, the “aptazyme ON/OFF ratio” value is reported as 1.12. For U7C G9C U10G U11G C12A C13A, the “aptazyme ON/OFF ratio” value was 1.08. For U7C G9C C13G, the “aptazyme ON/OFF ratio” value was 1.05. With U7C G9C C13U the “aptazyme ON/OFF ratio” value was 1.01. For U7C G9C C13A, the “aptazyme ON/OFF ratio” value was 1.03. In the case of U7C G9A U10C U11C C13U, the “aptazyme ON/OFF ratio” value is reported as 1.03. In the case of U7C G9A U10C U11C C13A, the “aptazyme ON/OFF ratio” value is reported as 1.01. With U7C G9A U10C U11C C13G the “aptazyme ON/OFF ratio” value was 1.02. In the case of U7C G9C U10G U11C C12G C13G, the “aptazyme ON/OFF ratio” value is reported as 1.13. With U7C G9C U10G U11C C12G C13A the “aptazyme ON/OFF ratio” value was 1.16. In the case of U7C G9C U10G U11C C12G C13U, the “aptazyme ON/OFF ratio” value is reported as 1.12. For U7C G9A U10G U11C C12G C13U, the “aptazyme ON/OFF ratio” value was 1.11. With U7C G9A U10G U11C C12G C13G the “aptazyme ON/OFF ratio” value was 1.34. With U7C G9A U10G U11C C12G C13A the “aptazyme ON/OFF ratio” value was 1.19. In the case of U7C G9A U11C C12G, the “aptazyme ON/OFF ratio” value is reported as 1.22. With U7C G9A U11C C12A the “aptazyme ON/OFF ratio” value was 1.2. In the case of U7C G9A U11C C12U, the “aptazyme ON/OFF ratio” value is reported as 1.17. With U7C G9C U10G U11C C12U C13G the “aptazyme ON/OFF ratio” value was 1.05. With U7C G9C U10G U11C C12U C13A the “aptazyme ON/OFF ratio” value was 1.12. For U7C G9C U10G U11C C12U C13U, the “aptazyme ON/OFF ratio” value was 1.16. With U7C G9C U10G U11C C13U the “aptazyme ON/OFF ratio” value was 1.06. In the case of U7C G9C U10G U11C C13G, the “aptazyme ON/OFF ratio” value is reported as 1.04. For U7C G9C U10G U11C C13A, the “aptazyme ON/OFF ratio” value was 1.1. For U7C G9A U10C U11G C12A, the “aptazyme ON/OFF ratio” value was 1.28.
